Values of other authors, collected in article PMC10817355.

Target: BTLA (Homo sapiens) (UniProt Q7Z6A9)
Chain of UniProt Q7Z6A9 (Q7Z6A9 31-157): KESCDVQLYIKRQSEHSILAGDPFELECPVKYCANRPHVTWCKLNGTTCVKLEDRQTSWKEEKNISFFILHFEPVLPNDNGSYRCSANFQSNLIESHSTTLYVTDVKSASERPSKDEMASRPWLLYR

Kd: 102 nM
Substance: HVEM(14-39) 14-39 (from UniProt Q92956)
